# Data: patent US20230143604A1, “QW DOSING OF GIP RECEPTOR AGONIST PEPTIDE COMPOUNDS AND USES THEREOF” (TAKEDA PHARMACEUTICAL COMPANY LIMITED, priority 2020, published 2023)
# Starred links: 1 amine or outer side, 2 acyl side, 3 side chain; linkers in the order of their positions; H or OH if unused. Non-standard residues stand in square brackets, D forms with d. Groups on a side chain read outwards from the residue. No end group written: not given here. *: point of attachment. 2OEGgEgE‑C18 diacid = O=C(O)CCCCCCCCCCCCCCCCC(=O)N[C@@H](CCC(=O)N[C@@H](CCC(=O)NCCOCCOCC(=O)NCCOCCOCC(=O)*)C(=O)O)C(=O)O; C18 diacid = O=C(O)CCCCCCCCCCCCCCCCC(=O)*; C17 diacid = O=C(O)CCCCCCCCCCCCCCCC(=O)*; γGlu = O=C(O)[C@H](CCC(=O)[*:2])N[*:1]; NMeY = CN[C@@H](Cc1ccc(O)cc1)C(=O)O; AEEA = NCCOCCOCC(=O)O; Aib = CC(C)(N)C(=O)O
# T1: full-length human GIPR with an N-terminal FLAG tag (human, UniProt P48546 22-466)
# T1 sequence (looked up): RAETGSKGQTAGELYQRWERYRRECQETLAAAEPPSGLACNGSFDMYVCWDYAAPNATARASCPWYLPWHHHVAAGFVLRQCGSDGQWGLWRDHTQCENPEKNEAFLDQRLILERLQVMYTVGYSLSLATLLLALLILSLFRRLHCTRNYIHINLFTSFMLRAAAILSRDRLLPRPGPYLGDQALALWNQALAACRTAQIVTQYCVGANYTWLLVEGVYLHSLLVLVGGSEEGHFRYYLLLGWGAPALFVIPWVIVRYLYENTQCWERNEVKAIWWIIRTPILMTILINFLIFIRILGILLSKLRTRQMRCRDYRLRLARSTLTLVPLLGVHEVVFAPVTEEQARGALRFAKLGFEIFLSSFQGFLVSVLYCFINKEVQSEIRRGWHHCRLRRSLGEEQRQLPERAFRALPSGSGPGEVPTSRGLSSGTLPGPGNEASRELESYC
# B1: Compound No. 43 (peptide)
# peptide: YXEGTFISDYSIAXDRXAQXDFVNWLLAQRPSSGAPPPS
# modifications: N-methyl Tyr 1; Aib at 2,17,20; Lys(G5-C18 diacid) at 14; C-terminal OH
# B2: Compound No. 29 (peptide)
# peptide: [NMeY][Aib]EGTFISDYSI[Aib]K([AEEA-AEEA-γGlu-γGlu-C17 diacid])DR[Aib]AQ[Aib]NFVNWLLAQSPSSGAPPPS-NH2
# B3: Compound No. 30 (peptide)
# peptide: [NMeY][Aib]EGTFISDYSIALDR[Aib]AQ[Aib]K([AEEA-AEEA-γGlu-γGlu-C17 diacid])FVNWLLAQRGGGGS-NH2
# B4: Compound No. 155 (peptide)
# peptide: Y[Aib]EGTFISDYSIALDK[Aib]AQAK([AEEA-AEEA-γGlu-γGlu-C18 diacid])FVEWLLAQRG-OH
# modifications: N-terminus assumed
# SMILES: CC[C@H](C)[C@H](NC(=O)[C@H](CO)NC(=O)[C@H](Cc1ccc(O)cc1)NC(=O)[C@H](CC(=O)O)NC(=O)[C@H](CO)NC(=O)[C@@H](NC(=O)[C@H](Cc1ccccc1)NC(=O)[C@@H](NC(=O)CNC(=O)[C@H](CCC(=O)O)NC(=O)C(C)(C)NC(=O)[C@@H](N)Cc1ccc(O)cc1)[C@@H](C)O)[C@@H](C)CC)C(=O)N[C@@H](C)C(=O)N[C@@H](CC(C)C)C(=O)N[C@@H](CC(=O)O)C(=O)N[C@@H](CCCCN)C(=O)NC(C)(C)C(=O)N[C@@H](C)C(=O)N[C@@H](CCC(N)=O)C(=O)N[C@@H](C)C(=O)N[C@@H](CCCCNC(=O)COCCOCCNC(=O)COCCOCCNC(=O)CC[C@H](NC(=O)CC[C@H](NC(=O)CCCCCCCCCCCCCCCCC(=O)O)C(=O)O)C(=O)O)C(=O)N[C@@H](Cc1ccccc1)C(=O)N[C@H](C(=O)N[C@@H](CCC(=O)O)C(=O)N[C@@H](Cc1c[nH]c2ccccc12)C(=O)N[C@@H](CC(C)C)C(=O)N[C@@H](CC(C)C)C(=O)N[C@@H](C)C(=O)N[C@@H](CCC(N)=O)C(=O)N[C@@H](CCCNC(=N)N)C(=O)NCC(=O)O)C(C)C
# B5: Compound No. 21 (peptide)
# peptide: [NMeY][Aib]EGTFISDYSIALDR[Aib]AQ[Aib]K([AEEA-AEEA-γGlu-γGlu-C18 diacid])FVNWLLAQRGGGGS-NH2
# B6: Compound No. 26 (peptide)
# peptide: [NMeY][Aib]EGTFISDYSI[Aib]LDRK([AEEA-AEEA-γGlu-γGlu-C18 diacid])AQ[Aib]NFVNWLLAQRPSSGAPPPS-NH2
# B7: Compound No. 28 (peptide)
# peptide: [NMeY][Aib]EGTFISDYSI[Aib]K([AEEA-AEEA-γGlu-γGlu-C18 diacid])DR[Aib]AQ[Aib]NFVNWLLAQRPSSGAPPPS-NH2
# B8: Compound No. 31 (peptide)
# peptide: [NMeY][Aib]EGTFISDYSIALDR[Aib]K([AEEA-AEEA-γGlu-γGlu-C17 diacid])Q[Aib]NFVNWLLAQSGGGGS-NH2
# B9: Compound No. 3 (peptide)
# peptide: [NMeY][Aib]EGTFISDYSIAK([AEEA-AEEA-γGlu-C18 diacid])DRIHQQNFVNWLLAQRPSSGAPPPS-NH2
# B10: Compound No. 2 (peptide)
# peptide: [NMeY][Aib]EGTFISDYSIALDRIHQ[Aib]NFVNWLLAQK([AEEA-AEEA-γGlu-C18 diacid])PSSGAPPPS-NH2
# B11: Compound No. 25 (peptide)
# peptide: [NMeY][Aib]EGTFISDYSIALDR[Aib]K([AEEA-AEEA-γGlu-C17 diacid])Q[Aib]DFVNWLLAQRPSSGAPPPS-NH2
# B12: Compound No. 42 (peptide)
# peptide: [NMeY][Aib]EGTFISDYSIALDR[Aib]AQ[Aib]K(2OEGgEgE‑C18 diacid)FVNWLLAQSG-OH
# B13: Compound No. 33 (peptide)
# peptide: [NMeY][Aib]EGTFISDYSI[Aib]LDR[Aib]AQ[Aib]NFVNWLLAQK([AEEA-AEEA-γGlu-γGlu-C17 diacid])GGGGS-NH2
# Biological target: full-length human GLP-1R with an N-terminal FLAG tag (human, UniProt P43220 24-463)
# Assay: cell-based or functional assay
row,Binder,"Human GLP1R cAMP EC50, HEK293T [nM]"
1,B1,61.7
2,B2,417
3,B3,105
4,B4,85.1
5,B5,34.7
6,B6,38.9
7,B7,20.9
8,B8,170
9,B9,10.5
10,B10,525
11,B11,145
12,B12,5.5
13,B13,437

# Biological target: T1, full-length human GIPR with an …
# Assay: cell-based or functional assay
row,Binder,"Human GIPR cAMP EC50, HEK293T [nM]"
1,B1,0.001
2,B2,0.0004
3,B3,0.0006
4,B4,0.0008
5,B5,0.0004
6,B6,0.0003
7,B7,0.0003
8,B8,0.0003
9,B9,0.0006
10,B10,0.0003
11,B11,0.0019
12,B12,0.0008
13,B13,0.0008
